Test results: US20040146896A1, “Methods and compositions for diagnosing and treating companion animal cancer” (priority 2002, published 2004)

Columns and labels:
[1] = test system: Normal dog hepatocytes; test: Cell Death ELISA apoptosis assay, normal dog hepatocytes; type: cell-based; conditions: mammalian expressed TRAIL supernatants; Fas ligand 100 ng/ml (FIG. 21B)
Description: (§1) 4. Cell Death Detection ELISA Plus assay for apoptosis. The assay is based on a quantitative sandwich-enzyme-immunoassay-principle using mouse monoclonal antibodies directed against DNA and histones, respectively. This allows the specific determination of mono- and oligonucleosomes in the cytoplasmatic fraction of cell lysates. Roche kit, Cat. # 1 774 425, was used for this assay. 0.1 ml of U937 or any other types of cells (2×104 ) and 0.1 ml of tissue culture supernatant or other solutions containing apoptosis inducing agents (e.g. TRAIL) were used for this assay in 48-well plate. After 24 or 48 hrs of incubation at 3 7° C., the cells were spun at 2,000 rpm for 10 minutes. Cell pellet was then resuspended in 200 ul lysis buffer and incubated for 30 minutes at room temperature. The cell lysate was then centrifuged at 2,000 rpm for 10 minutes and diluted at 1:10 with incubation buffer. 20 ul of diluted lysate was added to coated plate (MTP from kit) and 80 ul of the immunoreagent was added to each well. MTP was then covered with adhesive cover foil and incubated under gentle shaking for 2 hours at room temperature. The solution was then removed thoroughly by tapping and subsequently rinsed 3 times with 250 ul incubation buffer. 100 ul ABTS solution was added and incubated on a plate shaker at 250 rpm for 15 minutes. Readings at 405 nm and 490 nm (background) were done on ELISA reader.
3. […]

[2] = test system: U937 human tumor cells; test: Cell Death Detection ELISA apoptosis assay, U937; type: cell-based; conditions: mammalian expressed TRAIL supernatants; commercial human TRAIL and Fas ligand 100 ng/ml (FIGS. 19B, 20B, 21B)
Description: as §1, with “reader. […]” for “reader.”

[3] = test system: hepatocyte; conditions: literature (Lawrence et al. 2001); cited from earlier work
[4] = test system: human tumors; conditions: mice and nonhuman primates; literature (Walczak 1999; Ashkenazi 1999); cited from earlier work
[5] = test system: nontransformed, normal cells; conditions: literature (Walczak 1999; Wiley 1995; Pitti 1996); cited from earlier work
[6] = test system: various tumor cell lines; conditions: literature (Walczak 1999; Wiley 1995; Pitti 1996); cited from earlier work
[7] = test system: non-human hepatocytes; conditions: literature (Jo et al. 2000); cited from earlier work
[8] = test system: isolated human heptocytes; conditions: literature (Jo et al. 2000); cited from earlier work

## Fas ligand: Fas ligand (100 ng/ml, Upstate Biotechnology), control; well known agent which causes liver toxicity in vivo [reference compound]
[1]
  apoptosis of normal dog hepatocytes, in words: very sensitive
[2]
  induction of apoptosis of U937 cells, in words: sensitive

## His-tagged TRAIL: His-tagged recombinant TRAIL version, Lawrence et al. 2001
[3]
  hepatocyte toxicity (apoptosis) of recombinant TRAIL versions: induced substantial apoptosis

## TRAIL protein: TNF-related apoptosis-inducing ligand as reported in the literature
[4]
  apoptosis in human tumors after administration of TRAIL: can induce apoptosis in human tumors
  cytotoxicity in normal organs or tissues: no cytotoxicity
[5]
  apoptosis in nontransformed, normal cells: not in nontransformed, normal cells
[6]
  apoptosis in various tumor cell lines: induce apoptosis

## native form of soluble TRAIL protein: native form of soluble TRAIL protein, Lawrence et al. 2001
[3]
  hepatocyte toxicity (apoptosis) of recombinant TRAIL versions: no effect

## polyhistidine-tagged recombinant human TRAIL (residues 114-281): polyhistidine-tagged recombinant human TRAIL (residues 114-281), Jo et al. 2000
[7]
  apoptosis in vitro in non-human hepatocytes: not in non-human hepatocytes
[8]
  apoptosis in vitro in isolated human hepatocytes: induce apoptosis
